Laboratory results as given in publication PMC6274866, “The 2β Splice Variation Alters the Structure and Function of the Stromal Interaction Molecule Coiled-Coil Domains” (International Journal of Molecular Sciences, 2018).

Columns and labels:
[1] = target: the molecule itself; assay: SEC-MALS; 1 mg/mL protein injected on Superdex 200 Increase 10/300 GL at 10 °C; 20 mM TRIS, 300 mM NaCl, 1 mM DTT, pH 8.0; with 25 mM CaCl2; stoichiometric ratio = MALS molecular weight / theoretical monomer mass
[2] = target: the molecule itself; assay: SEC-MALS; 1 mg/mL protein injected on Superdex 200 Increase 10/300 GL at 10 °C; 20 mM TRIS, 300 mM NaCl, 1 mM DTT, pH 8.0; without CaCl2; stoichiometric ratio = MALS molecular weight / theoretical monomer mass

B1: STIM1-2β-OASF (STIM1-OASF mutated to contain the VAASYLIQ (2β) insertion after G379) (domain or fragment, human, UniProt Q13586-1 234-491, looked up)
chain: NRYSKEHMKKMMKDLEGLHRAEQSLHDLQERLHKAQEEHRTVEVEKVHLEKKLRDEINLAKQEAQRLKELREGTENERSRQKYAEEELEQVREALRKAEKELESHSSWYAPEALQKWLQLTHEVEVQYYNIKKQNAEKQLLVAKEGVAASYLIQAEKIKKKRNTLFGTFHVAHSSSLDDVDHKILTAKQALSEVTAALRERLHRWQQIEILCGFQIVNNPGIHSLVAALNIDPSWMGSTRPNPAHFIMTDDVDDMDEEIVSPLSMQ
notes: Made by PCR-mediated site-directed mutagenesis of pET-28a-STIM1-OASF; A few vector residues probably remain after thrombin cleavage (surmise); source: E. coli BL21 (DE3), purified under denaturing conditions (guanidine-HCl, nickel-NTA), renatured, thrombin-cleaved, SEC
stoichiometry N [1]: 1.96
stoichiometry N [2]: 2.02
